Experimental data published in publication PMC4112278.

How the values were obtained:
Assay in all cases: SEC
[1] = molecular target: HIV-1_(NIBSC40-9) gp140 Env trimer (HIV-1 (isolate NIBSC 40-9, clade A))
[2] = molecular target: HIV-1_(ITM1_4) gp140 Env trimer (HIV-1 (isolate ITM1_4, clade A))
[3] = molecular target: HIV-1_(UG37) gp140 Env trimer (HIV-1 (isolate UG37, clade A))
[4] = molecular target: HIV-1_(YU2) gp140 Env trimer (HIV-1 (isolate YU2))
[5] = molecular target: SIV_(mac239) gp140 Env trimer (SIV_(mac239))

HIV-1_(NIBSC40-9) gp140 Env trimer (domain or fragment)
stoichiometry N [1]: 3

HIV-1_(ITM1_4) gp140 Env trimer (domain or fragment)
stoichiometry N [2]: 3

HIV-1_(UG37) gp140 Env trimer (domain or fragment)
stoichiometry N [3]: 3

HIV-1_(YU2) gp140 Env trimer (domain or fragment)
stoichiometry N [4]: 3

SIV_(mac239) gp140 Env trimer (domain or fragment)
stoichiometry N [5]: 3
